The record followed here is publication PMC10907630.

Common to all, as to experiment: EMSA
For orientation: A gel shift assay detects complexes by their altered migration in electrophoresis.

The subject of data set [1] is tau ΔPRD-DBR (1N4R) del191-211, P10636-7. The note with it: EMSA: 20 nM DNA or nucleosome, 20 mM HEPES pH 7.2, 10 mM NaCl (or 150), 0.5 mM TCEP, 0.1% Tween-20, 5% sucrose, room temperature 20 min; FA: 10 nM DNA, same ….
Data set [2] has as its system PG-ptau (tau 1N4R phosphorylated by PKA and GSK-3β), P10636-7. The note with it: EMSA: 20 nM DNA or nucleosome, 20 mM HEPES pH 7.2, 10 mM NaCl (or 150), 0.5 mM TCEP, 0.1% Tween-20, 5% sucrose, room temperature 20 min, FA: 10 nM DNA, same ….
Data set [3] concerns tau 1N4R, P10636-7. The note with it: Hill fit, EMSA: 20 nM DNA or nucleosome, 20 mM HEPES pH 7.2, 10 mM NaCl (or 150), 0.5 mM TCEP, 0.1% Tween-20, 5% sucrose, room temperature 20 min, FA: 10 nM DNA, same ….

The term Kd denotes the concentration at which binding is half-saturated.

Sequence of PG-ptau (tau 1N4R phosphorylated by PKA and GSK-3β), P10636-7 (P10636 other isoform, or with tags, fused parts or gaps): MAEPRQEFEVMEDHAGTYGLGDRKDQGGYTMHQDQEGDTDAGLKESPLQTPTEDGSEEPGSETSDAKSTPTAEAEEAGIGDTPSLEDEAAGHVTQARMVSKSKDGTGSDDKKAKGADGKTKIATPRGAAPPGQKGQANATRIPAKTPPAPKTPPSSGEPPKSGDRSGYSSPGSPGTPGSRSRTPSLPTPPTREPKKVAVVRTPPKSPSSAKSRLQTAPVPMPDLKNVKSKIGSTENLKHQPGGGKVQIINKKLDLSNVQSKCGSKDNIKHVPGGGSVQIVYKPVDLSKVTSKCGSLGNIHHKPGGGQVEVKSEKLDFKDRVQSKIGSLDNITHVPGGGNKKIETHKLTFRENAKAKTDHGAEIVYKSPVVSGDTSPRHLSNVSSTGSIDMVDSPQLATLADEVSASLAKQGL
Sequence of tau 1N4R, P10636-7 (P10636 other isoform, or with tags, fused parts or gaps): as above
Sequence of tau ΔPRD-DBR (1N4R) del191-211, P10636-7 (P10636 other isoform, or with tags, fused parts or gaps mutant): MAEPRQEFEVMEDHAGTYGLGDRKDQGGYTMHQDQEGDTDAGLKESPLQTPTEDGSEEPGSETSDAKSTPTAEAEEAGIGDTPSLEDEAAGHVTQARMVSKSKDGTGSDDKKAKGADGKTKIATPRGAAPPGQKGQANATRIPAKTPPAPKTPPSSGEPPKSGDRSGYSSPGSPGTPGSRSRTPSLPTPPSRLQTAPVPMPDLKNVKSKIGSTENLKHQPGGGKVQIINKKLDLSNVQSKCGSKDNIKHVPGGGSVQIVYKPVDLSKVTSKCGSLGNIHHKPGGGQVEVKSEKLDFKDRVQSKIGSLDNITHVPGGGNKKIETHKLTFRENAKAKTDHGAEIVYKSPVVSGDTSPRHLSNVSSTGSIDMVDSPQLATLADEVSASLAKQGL

In the case of “ACTACGCGGCCGCCCTGGAGAATCCCGGTGCCGAGGCCGCTCAATTGGTCGTAGACAGCTCTAGCACCGCTTAAACGCACGTACGCGCTGTCCCCCGCGTTTTAACCGCCAAGGGGATTACTCCCTAGTCTCCAGGCACGTGTCAGATATATACATCCTGTGCATGTAAGATCCAGT (double strand) [177 bp DNA (601)]”, the equilibrium dissociation constant (Kd) was 410 nM in data set [1]; 426 nM in data set [2] (150 mM NaCl (Fig. S12 legend says 10 mM)); 241 nM in data set [2]; 135 nM in data set [3] (10 mM NaCl); 188 nM in data set [3] (150 mM NaCl).

For the sequence “ACTACGCGGCCGCCCTGGAGAATCCCGGTGCCGAGGCCGCTCAATTGGTCGTAGACAGCTCTAGCACCGCTTAAACGCACGTACGCGCTGTCCCCCGCGTTTTAACCGCCAAGGGGATTACTCCCTAGTCTCCAGGCACGTGTCAGATATATACATCCTGTGCATGTAAGATCCAGT (double strand) [177 bp mononucleosome]”, the dissociation constant Kd was determined as 166 nM in data set [2] and 106 nM in data set [3] (10 mM NaCl).

With “CTGGAGAATCCCGGTGCCGAGGCCGCTCAATTGGTCGTAGACAGCTCTAGCACCGCTTAAACGCACGTACGCGCTGTCCCCCGCGTTTTAACCGCCAAGGGGATTACTCCCTAGTCTCCAGGCACGTGTCAGATATATACATCCTGT (double strand) [147 bp mononucleosome (linker-free)]”, the Kd in data set [3] (10 mM NaCl) turned out to be 83.4 nM.
